Where a chain is given by its changes, count along the chain named. Values belong to the binder of their own block, whether it stands above or below them.
Target: T1, Rat Serum Albumin (rat, UniProt P02770 25-608)
T1 construct: Bought purified serum albumin; coupled to CM5 chips for BiaCore; also called RSA; rat SA
Experiment: SPR (BiaCore)

T1 sequence (P02770 25-608 limits assumed): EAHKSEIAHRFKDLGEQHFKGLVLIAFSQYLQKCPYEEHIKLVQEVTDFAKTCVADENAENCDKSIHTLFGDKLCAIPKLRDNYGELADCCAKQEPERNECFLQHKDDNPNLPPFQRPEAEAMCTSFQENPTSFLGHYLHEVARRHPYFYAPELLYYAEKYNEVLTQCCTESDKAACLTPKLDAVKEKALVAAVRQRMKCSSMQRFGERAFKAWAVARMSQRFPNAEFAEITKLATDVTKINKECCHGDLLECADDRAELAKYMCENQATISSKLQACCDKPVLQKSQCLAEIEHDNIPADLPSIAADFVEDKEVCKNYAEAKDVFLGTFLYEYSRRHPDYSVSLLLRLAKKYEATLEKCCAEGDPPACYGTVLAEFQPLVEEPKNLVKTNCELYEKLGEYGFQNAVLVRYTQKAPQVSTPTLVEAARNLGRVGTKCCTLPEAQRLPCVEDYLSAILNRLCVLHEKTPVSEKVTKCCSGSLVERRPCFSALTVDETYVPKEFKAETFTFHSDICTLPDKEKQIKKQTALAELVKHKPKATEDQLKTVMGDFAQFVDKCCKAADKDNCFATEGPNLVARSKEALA

- fold decrease in affinity against the unfused ALBUDAB: 2 fold
B1: DOM7h-11-12/DOM1m-21-23 fusion DMS number 5516 (other)
chain: EVQLLESGGGLVQPGGSLRLSCAASGFTFNRYSMGWLRQAPGKGLEWVSRIDSYGRGTYYEDPVKGRFSISRDNSKNTLYLQMNSLRAEDTAVYYCAKISQFGSNAFDYWGQGTQVTVSSASTSGPSDIQMTQSPSSLSASVGDRVTITCRASRPIGTMLSWYQQKPGKAPKLLILFGSRLQSGVPSRFSGSGSGTDFTLTISSLQPEDFATYYCAQAGTHPTTFGQGTKVEIKRAAAEQKLISEEDLN
notes: DOM1m-21-23 - ASTSGPS - DOM7h-11-12 - myc tag; also called DMS5516

- fold decrease in affinity against the unfused ALBUDAB: 2 fold
B2: DOM7h-11-15/DOM1m-21-23 fusion DMS number 5517 (other)
chain: B1 chain with F177A, G178F
notes: DOM1m-21-23 - ASTSGPS - DOM7h-11-15 - myc tag; also called DMS5517; DOM1m21-23-DOM7h11-15
